# Source: PMC4017264 (Molecular Cell, 2014)
# No end group written: not given here. *: point of attachment. FITC = O=C1OC2(c3ccc(O)cc3Oc3cc(O)ccc32)c2ccc(NC(=S)*)cc21; Ahx = NCCCCCC(=O)O
# T1: HOIP PUB domain (HOIP 1-184) (Homo sapiens, UniProt Q96EP0)
# T1 construct: PUB domains from HOIP (aa 1–184, red); His6 (3C-cleavable, pOPINB) (N, cleaved yes); made in house; host or cells: E. coli Rosetta2 (DE3) pLacI
# T1 sequence (Q96EP0 1-184): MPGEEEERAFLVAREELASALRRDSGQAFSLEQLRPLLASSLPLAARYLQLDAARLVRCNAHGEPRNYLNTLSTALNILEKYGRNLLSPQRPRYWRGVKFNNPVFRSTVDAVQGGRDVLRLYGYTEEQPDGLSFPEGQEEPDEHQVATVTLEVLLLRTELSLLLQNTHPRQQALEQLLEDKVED
# T2: HOIP extended PUB domain (aa 1–184) (UniProt Q96EP0 1-184)
# T2 chain: T1 sequence (Q96EP0 1-184)
# T3: PNGase PUB domain R55A (UniProt Q96IV0 11-109, Arg55 was mutated to Ala)
# T3 construct: PNGase PUB domain with Arg55 mutated to Ala; also called PNGase mutant; Arg55 mutated to Ala
# T3 sequence (looked up): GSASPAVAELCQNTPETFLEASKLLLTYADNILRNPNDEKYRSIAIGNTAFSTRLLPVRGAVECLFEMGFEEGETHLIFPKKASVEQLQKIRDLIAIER
# T4: HOIP extended PUB domain (aa 1–184) (UniProt Q96EP0 1-184)
# T4 construct: 15N- or 13C,15N-labelled for NMR; Construct details are in the Supplemental Experimental Procedures; also called HOIP PUB domain
# T4 sequence (looked up): T1 sequence (Q96EP0 1-184)
# B1: OTU domain: OTULIN catalytic (OTU) domain (aa 80–352) (protein)
# chain: LSVAPEMDIMDYCKKEWRGNTQKATCMKMGYEEVSQKFTSIRRVRGDNYCALRATLFQAMSQAVGLPPWLQDPELMLLPEKLISKYNWIKQWKLGLKFDGKNEDLVDKIKESLTLLRKKWAGLAEMRTAEARQIACDELFTNEAEEYSLYEAVKFLMLNRAIELYNDKEKGKEVPFFSVLLFARDTSNDPGQLLRNHLNQVGHTGGLEQVEMFLLAYAVRHTIQVYRLSKYNTEEFITVYPTDPPKDWPVVTLIAEDDRHYNIPVRVCEETSL
# modifications: left off: His6 (from the vector pOPINB), end not stated, state not stated
# B2: fluorescently labeled OTULIN peptide (aa 49–67) Y56W (peptide)
# peptide: {FITC-Ahx}-AEHEEDMWRAADEIEKEKE
# B3: fluorescently labeled OTULIN peptide (aa 49–67) D54A (peptide)
# peptide: {FITC-Ahx}-AEHEEAMYRAADEIEKEKE
# B4: fluorescently labeled OTULIN peptide (aa 49–67) Y56F (peptide)
# peptide: AEHEEDMFRAADEIEKEKE
# modifications: not fully specified (N-terminus)
# B5: fluorescently labeled OTULIN PIM peptide (aa 49–67) M55L (peptide, UniProt Q96BN8 49-67, looked up)
# peptide: {FITC-Ahx}-AEHEEDLYRAADEIEKEKE
# notes: OTULIN, residues 49-67, Met55 exchanged to Leu (as in p97); also called OTULIN M55L PIM peptide
# Assays:
# [1] = test system: HOIP PUB domain (15N HOIP 1-184); experiment: NMR binding (chemical shift perturbation) to 15N-labeled HOIP PUB domain; set-up: species or system Human; conditions: 15N BEST-TROSY NMR, 100 μM 15N HOIP 1-184, 20 mM phosphate pH 6.8, 50 mM NaCl, 2 mM DTT, 298K
# Procedure: Standard triple-resonance experiments (HNCA, HN(CO)CA, HNCACB, CBCA(CO)NH, and HBHA(CO)NH) were acquired for the assignment of HOIP resonances. Constant time ^13C and ^13C-HSQC were acquired for the methyl and aromatic regions. In addition, (HB)CB(CGCD)HD and (HB)CB(CGCDCE)HE experiments coupled the Cβ of tyrosine resonances to the Hδ and Hε positions of the tyrosine ring, respectively.
# (§1) Fluorescence polarization binding assays
# (§2) 10 µl of 100 nM FITC-Ahx peptides of either OTULIN (49-67) or p97 (797-806) were aliquoted into a 384-well low volume plate (Corning). Serial dilutions of HOIP PUB into FP assay buffer (20 mM Tris pH 7.4, 100 mM NaCl, 1 mM DTT) were prepared and 10 µl of this was aliquoted to FITC-Ahx peptide-containing wells. Fluorescence polarization was recorded on a PheraStar plate reader (BMG Labtech) using an optics module with $ex = 485 nm and $em = 520 nm. To derive binding constants (KD), polarization values were fitted to a one-site binding model using Graphpad Prism 5.
# Nuclear Magnetic Resonance Spectroscopy
# Uniformly labeled 15N or 13C, 15N samples of HOIP were prepared following growth in 2M9 medium supplemented with either 15N NH4Cl or 13C glucose.
# Proteins were purified as described above and all samples were exchanged into NMR sample buffer (20 mM Na2HPO4/NaH2PO4 pH 6.8, 50 mM NaCl, 2 mM DTT). Lyophilized OTULIN and p97 PIM peptides were reconstituted in NMR sample buffer and the pH adjusted to pH 6.8 prior to use. NMR data were acquired at 298K on Bruker Avance III 600 MHz and Avance2+ 700
# MHz spectrometers, equipped with cryogenic triple resonance TCI probes.
# Standard triple resonance experiments (HNCA, HN(CO)CA, HNCACB, CBCA(CO)NH, HBHA(CO)NH) were acquired for the assignment of backbone
# HOIP resonances. In addition, constant-time (ct) 13C and 13C-HSQC were acquired for the methyl and aromatic regions. For assignment of the H",H# resonances of HOIP tyrosines, (HB)CB(CGCD)HD and (HB)CB(CGCDCE)HE spectra were acquired, which coupled the C$ position of the tyrosine resonances to the H"/H# position of the tyrosine ring respectively. […]
# [2] = test system: endogenous LUBAC (HOIP, HOIL-1, SHARPIN); experiment: coimmunoprecipitation of endogenous LUBAC components with HA-tagged OTULIN; assay type: cell-based; conditions: HA-OTULIN variants in HEK293T cells, anti-HA IP, western blot
# Procedure: Transfected HEK293T or U2OS and NOD2 cells were lysed in the presence of protease and phosphatase inhibitors. Clarified lysates were incubated overnight with anti-V5 and anti-HA-agarose resin. […]
# siOTULIN: […], siMM […]
# Immunoprecipitation of HOIP-V5 and HA-OTULIN
# HEK293T or U2OS/NOD2 cells were transfected as indicated. The cells were lysed in IP buffer buffer (25 mM HEPES pH 7.4, 150 mM KCl, 2 mM MgCl2, 1 mM EGTA, 0.5% (v/v) Triton X-100) supplemented with 5 mM NEM (Sigma-Aldrich), cOmplete protease inhibitor cocktail (Roche) and PhosSTOP
# (Roche). After 30 minutes on ice, the lysates were cleared by centrifugation and incubated overnight at 4 °C with anti-V5-agarose resin or anti-HA-agarose resin. The beads were washed four times in ice-cold IP buffer and the precipitated material was eluted with 0.2 M glycine, pH 2.5. […]
# [3] = target: T1, HOIP PUB domain (HOIP 1-184); experiment: fluorescence polarization binding of FITC-Ahx peptides to HOIP PUB domain
# Procedure: Serially diluted PUB domains and HOIP variants were mixed with an equal volume of 100 nM FITC-Ahx-labeled peptides of OTULIN and p97. Fluorescence polarization was recorded on a PheraStar plate reader (BMG LABTECH) and fitted to a one-site binding model with GraphPad Prism 5.
# as §1
# as §2, with “5. […]” for “5.”
# [4] = target: T2, HOIP extended PUB domain (aa 1–184); experiment: FP
# [5] = target: T3, PNGase PUB domain R55A; experiment: fluorescence polarisation; serially diluted PUB domains and HOIP variants mixed with an equal volume of 100 nM FITC-Ahx-labeled peptide; one-site binding model; triplicate; conditions: both partners purified
# [6] = target: T4, HOIP extended PUB domain (aa 1–184); experiment: as above; conditions: both partners purified
molecule,measurement,setting,value
OTULIN 49-67: unlabeled OTULIN PIM peptide (aa 49–67) used in NMR and crystallization (AEHEEDMYRAADEIEKEKE),binding / chemical shift perturbations of HOIP PUB domain (in words),[1],"CSPs and loss of a large number of resonances, a feature common to slow exchange"
OTULIN Y56F: HA-tagged full-length OTULIN with PIM point mutation Y56F,coimmunoprecipitation of endogenous LUBAC components (in words),[2],abrogated binding
OTULIN Y56E: HA-tagged full-length OTULIN with PIM point mutation Y56E,coimmunoprecipitation of endogenous LUBAC components (in words),[2],abrogated binding
OTULIN D54A: HA-tagged full-length OTULIN with PIM point mutation D54A,coimmunoprecipitation of endogenous LUBAC components (in words),[2],Residual binding was still observed
OTULIN Y56A: HA-tagged full-length OTULIN with PIM point mutation Y56A,coimmunoprecipitation of endogenous LUBAC components (in words),[2],abrogated binding
M55D: fluorescently labeled OTULIN peptide (aa 49–67) with point mutation M55D ({FITC-Ahx}-AEHEEDDYRAADEIEKEKE),binding to HOIP PUB domain (in words),[3],abrogated binding
B1,binding / chemical shift perturbations of HOIP PUB domain (in words),[1],did not interact with the HOIP PUB domain
B2,Kd,[4],21.3 µM
B3,Kd,[4],11.2 µM
B4,Kd,[4],64.5 µM
B5,Kd,[5],5 µM
same,Kd,[6],0.37 µM
